± gives the standard deviation of the averaged measurements.
Tested on: ATP
Assay: switch fluorescence ratio, 500 uM ATP over buffer (Cy3 cluster intensity, sum of 5 cycles each) (fold (ratio)); higher = stronger signal-on switching upon ATP binding; sequences stand for … in TCGTCGGCAGCGTCAGATGTGTATAAGAGACAGTTTTTTTTTTTTTTTTTTTTTTTTT…TC
Settings: aptamer strand: ATP DNA aptamer (quencher-CACCTGGGGGAGTATTGCGGAGGAAGG + anchor), 100 nM annealed; ATP concentration: 500 uM
Procedure, shortened: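 Values give the fluorescence ratio for each switch-domain sequence, averaged from per-cluster ratios of summed target-cycle to summed buffer-cycle Cy3 intensity. The Cy3-labelled switching-strand clusters sat on a modified Illumina MiSeq flow-cell, were annealed to 100 nM quencher-labelled ATP aptamer, and were imaged in selection buffer, then after 15 min with 500 uM ATP at 22 °C. Five cycles ran with NaOH stripping and re-annealing between them, and clusters outside 100-1000 RFU were excluded.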
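Further: ATP exposure 15 min at 22 °C before imaging.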

Row | Sequence | switch fluorescence ratio
1 | CTGGATGGAG | 0.9934 ± 0.0047
2 | CTGGATTAAT | 1.02 ± 0.04
3 | CTGGATTTCA | 0.99 ± 0.027
4 | CTGGCATGTA | 1.0141 ± 0.00098
5 | CTGGCATTAT | 1.21 ± 0.038
6 | CTGGCCTTTG | 0.983 ± 0.036
7 | CTGGCGGATT | 0.985 ± 0.05
8 | CTGGCGGGGA | 1.02 ± 0.025
9 | CTGGCTAGGC | 1 ± 0.014
10 | CTGGCTTTGG | 1.05 ± 0.043
11 | CTGGCTTTTG | 0.999 ± 0.017
12 | CTGGGAACGA | 0.998 ± 0.035
13 | CTGGGACAGT | 0.995 ± 0.034
14 | CTGGGAGGAT | 0.98788 ± 0.0003
15 | CTGGGAGTGG | 1.04 ± 0.013
16 | CTGGGATGTG | 0.98 ± 0.023
17 | CTGGGATTGG | 1.001 ± 0.0039
18 | CTGGGCACGT | 0.997 ± 0.023
19 | CTGGGCAGGT | 1 ± 0.016
20 | CTGGGGATTG | 1.01 ± 0.014
21 | CTGGGGCGTC | 0.993 ± 0.045
22 | CTGGGGGGAG | 1.01 ± 0.024
23 | CTGGGGGGGA | 1.02 ± 0.022

Row | Sequence | switch fluorescence ratio
24 | CTGGGGGGGT | 0.994 ± 0.036
25 | CTGGGGGTA | 0.9889 ± 0.0083
26 | CTGGGGGTGG | 0.964 ± 0.011
27 | CTGGGGTTCG | 1.0213 ± 0.00034
28 | CTGGGTATGA | 1.01 ± 0.024
29 | CTGGGTCCGG | 1.01 ± 0.024
30 | CTGGGTGGGG | 1 ± 0.013
31 | CTGGGTTGGC | 1.0029 ± 0.00048
32 | CTGGGTTTCG | 0.974 ± 0.042
33 | CTGGTAAGGA | 1.017 ± 0.0031
34 | CTGGTATTAT | 1.017 ± 0.0046
35 | CTGGTCCGGC | 1.01 ± 0.078
36 | CTGGTGAGTT | 0.9789 ± 0.0012
37 | CTGGTGGGAG | 0.9857 ± 0.0067
38 | CTGGTGGGTC | 1.01 ± 0.018
39 | CTGGTGTGGA | 1.034 ± 0.0058
40 | CTGGTTAATT | 0.973 ± 0.017
41 | CTGGTTTATA | 0.962 ± 0.027
42 | CTGGTTTCGG | 0.993 ± 0.022
43 | CTGGTTTGAG | 0.97 ± 0.012
44 | CTGTAAGGCC | 0.981 ± 0.015
45 | CTGTAAGGGG | 0.977 ± 0.022
46 | CTGTAATATT | 1.13 ± 0.029

Row | Sequence | switch fluorescence ratio
47 | CTGTACGGGG | 1.02 ± 0.054
48 | CTGTATATAG | 1.017 ± 0.0083
49 | CTGTATGGGT | 0.9978 ± 0.0094
50 | CTGTATGGTA | 1.04 ± 0.045
51 | CTGTATGTCA | 0.99 ± 0.0098
52 | CTGTATTCAC | 1.04 ± 0.033
53 | CTGTCAAGTA | 0.972 ± 0.012
54 | CTGTCGAGTA | 1.13 ± 0.19
55 | CTGTCTGCCG | 1.01 ± 0.017
56 | CTGTGATACT | 2.93 ± 0.22
57 | CTGTGGAGGG | 0.9455 ± 0.0091
58 | CTGTGGGTCC | 0.976 ± 0.034
59 | CTGTGGGTTC | 1 ± 0.016
60 | CTGTGTATGG | 0.989 ± 0.036
61 | CTGTGTCTTT | 0.995 ± 0.072
62 | CTGTTAGAGA | 1.01 ± 0.014
63 | CTGTTAGGGG | 0.967 ± 0.03
64 | CTGTTAGGTA | 1.007 ± 0.01
65 | CTGTTATCGA | 0.9972 ± 0.0029
66 | CTGTTCTGGC | 0.962 ± 0.12
67 | CTGTTTATTG | 0.977 ± 0.027
68 | CTGTTTGGTA | 1 ± 0.055
69 | CTGTTTGTAT | 0.978 ± 0.02

Row | Sequence | switch fluorescence ratio
70 | CTGTTTGTGC | 0.975 ± 0.013
71 | CTGTTTTGGT | 1.008 ± 0.0028
72 | CTGTTTTTGT | 1.01 ± 0.024
73 | CTTAAAATGG | 1.03 ± 0.038
74 | CTTAAACAGC | 1.02 ± 0.063
75 | CTTAAAGAGT | 0.964 ± 0.043
76 | CTTAAAGGTC | 1.02 ± 0.052
77 | CTTAAATATG | 1 ± 0.012
78 | CTTAAATGTT | 1.014 ± 0.0078
79 | CTTAATTATA | 1.01 ± 0.015
80 | CTTAATTTGA | 0.984 ± 0.058
81 | CTTACATTGC | 1.05 ± 0.029
82 | CTTACCTTGC | 1.99 ± 0.44
83 | CTTACGGCAC | 1.82 ± 0.062
84 | CTTACGGGCA | 1.03 ± 0.033
85 | CTTACGTCTG | 1.01 ± 0.015
86 | CTTACTATTG | 1.03 ± 0.05
87 | CTTAGATGTT | 0.963 ± 0.024
88 | CTTAGCTAGA | 1.0428 ± 0.00056
89 | CTTAGGAGGG | 0.997 ± 0.013
90 | CTTAGGGGAT | 1.03 ± 0.047
91 | CTTAGGGGT | 1.03 ± 0.015
92 | CTTAGGGTAG | 1.01 ± 0.019

Row | Sequence | switch fluorescence ratio
93 | CTTAGTAGTA | 0.992 ± 0.019
94 | CTTATAATAG | 1.036 ± 0.006
95 | CTTATAGACT | 1.01 ± 0.011
96 | CTTATGATTT | 0.998 ± 0.033
97 | CTTATTAGGC | 1.05 ± 0.042
98 | CTTATTAGGT | 0.985 ± 0.045
99 | CTTATTTGGC | 1.032 ± 0.0017
100 | CTTCACCAAC | 1.19 ± 0.013
101 | CTTCAGGAAG | 0.9946 ± 0.0021
102 | CTTCATAGGG | 0.968 ± 0.024
103 | CTTCGTGCAT | 1.23 ± 0.069
104 | CTTCTCGGCG | 1.08 ± 0.053
105 | CTTCTCTAGT | 0.9742 ± 0.0069
106 | CTTCTGAGGG | 1.02 ± 0.012
107 | CTTCTGGGGA | 0.993 ± 0.02
108 | CTTCTTCAGC | 1.44 ± 0.061
109 | CTTGAATTTT | 0.988 ± 0.049
110 | CTTGCATAAC | 3.51 ± 0.88
111 | CTTGCGCCTG | 1.01 ± 0.048
112 | CTTGGAAATA | 1.02 ± 0.013
113 | CTTGGAAGGG | 0.9683 ± 0.006
114 | CTTGGCTCTT | 0.985 ± 0.01
115 | CTTGGGACTT | 1 ± 0.05

Row | Sequence | switch fluorescence ratio
116 | CTTGGGGCTT | 0.985 ± 0.014
117 | CTTGGGGGAA | 0.964 ± 0.013
118 | CTTGGGTCTG | 1 ± 0.066
119 | CTTGGTAGTG | 0.959 ± 0.015
120 | CTTGGTCAAG | 0.9834 ± 0.0062
121 | CTTGGTGGGG | 0.969 ± 0.031
122 | CTTGGTGTAT | 1.03 ± 0.086
123 | CTTGGTGTTG | 1.04 ± 0.065
124 | CTTGTAACGG | 0.975 ± 0.01
125 | CTTGTAATTT | 1.02 ± 0.035
126 | CTTGTAGGGA | 0.9956 ± 0.0053
127 | CTTGTATTAG | 1.01 ± 0.012
128 | CTTGTCAGGG | 0.975 ± 0.021
129 | CTTGTCGAGG | 0.986 ± 0.042
130 | CTTGTCTGAG | 0.9818 ± 0.0096
131 | CTTGTGGATG | 1 ± 0.029
132 | CTTGTTAGCG | 0.9807 ± 0.0076
133 | CTTGTTAGGG | 0.996 ± 0.032
134 | CTTGTTGCCG | 1.01 ± 0.013
135 | CTTGTTTAAC | 0.993 ± 0.035
136 | CTTGTTTTGT | 1.02 ± 0.015
137 | CTTTAAGGTG | 1.39 ± 0.062
138 | CTTTACACAG | 1.0006 ± 0.00047

Row | Sequence | switch fluorescence ratio
139 | CTTTAGGTGG | 1.03 ± 0.037
140 | CTTTATGTCG | 1.02 ± 0.048
141 | CTTTATGTTT | 0.991 ± 0.015
142 | CTTTATTGGG | 0.972 ± 0.02
143 | CTTTATTTAG | 0.997 ± 0.023
144 | CTTTATTTGC | 1.05 ± 0.021
145 | CTTTCATCTA | 1.01 ± 0.03
146 | CTTTCCCCGT | 1.396 ± 0.0017
147 | CTTTCCGTGC | 1.32 ± 0.035
148 | CTTTCTAAGG | 1.02 ± 0.036
149 | CTTTCTTTGG | 0.99 ± 0.018
150 | CTTTGAAAA | 1.02 ± 0.02
151 | CTTTGAAGAG | 1.017 ± 0.0058
152 | CTTTGAAGTT | 1.01 ± 0.029
153 | CTTTGCGTTT | 1.02 ± 0.093
154 | CTTTGGAGAC | 1.06 ± 0.051
155 | CTTTGGGCCC | 0.98271 ± 0.0009
156 | CTTTGTATTC | 1.04 ± 0.022
157 | CTTTGTCTTA | 0.999 ± 0.05

— the supplement of paper PMC10126150
